Laboratory results taken from patent publication US20230382991A1 (COMMISSARIAT A L ENERGIE ATOMIQUE ET AUX ENERGIES …, published 2023).

B1: BF14 humanized antagonist antibody of Family AB2 (antibody, V domains shown)
VH: QVQLVESGGGVVQPGRSLRLSCAASGFTFSDYGMHWVRQAPGKGLEWVAYISSGSSTSYYADTVKGRFTISRDDSKNTLYLQMNSLRAEDTAVYYCARPGSNWDVYYAMDYWGQGTLVTVSS
VL: DIQLTQSPSSLSASVGDRVTITCRASQSVSTSSYSYMHWYQQKPGKAPKLLIKNASNLESGVPSRFSGSGSGTDFTLTISSLQPEDFATYYCQHSWEIPFTFGPGTKVDIK
B2: B1.2.1 monoclonal antibody (antibody, V domains shown)
VH: EVQLVESGGGLVQPKGSLKLSCAASGFTFNTHAMHWVRQAPGKGLEWVARIRSKSSNYATFYADSVKDRFTISRDDSQSMLYLQMNNLKTEDTAIYFCVMVYYGNSPYYSMDYWGQGTSVTVSS
VL: NIVMTQSPKSMSMSVGERVTLSCKASENVGTYVSWYQQKPEQSPKLLIYGASNRYTGVPDRFTGSGSATDFTLIINNIQAEDLADYHCGQSYSSPLTFGAGTKLELK
notes: Mouse monoclonal antibody purified from hybridoma supernatant (immunisation with mLILRB1.2-Fc); also called B1.2.1 mAb
B3: B1.2.2 monoclonal antibody (antibody, V domains shown)
VH: EVQLVESGGGLVKPGGSLKLSCAASGFTFSDYGMHWVRQAPEKGLEWVAYISSGSSTSYYADTVKGRFTISRDDAKNTLFLQMTSLRSEDTAMYYCARPGSNWDVYYAMDYWGQGTSVTVSS
VL: DIVLTQSPASLAVSLGQRATISCRASQSVSTSSYSYMHWYQQKPGQPPKLLIKNASNLESGVPARFSGSGSGTDFTLNIHPVEEEDTATYYCQHSWEIPFTFGGGTKLEIK
notes: Mouse monoclonal antibody purified from hybridoma supernatant (immunisation with mLILRB1.2-Fc); also called B1.2.2 mAb; clone 20G10

What was measured:
[1] = target: T1, human LILRB1 expressed on stably transduced CHO cells (human, UniProt Q8NHL6 24-650); test: flow cytometry, same method as FIG. 1B (CHO cells expressing human LILRB1)
T1 construct: whole, on cells; also called hLILRB1; CHO hLILRB1 cell line

[2] = target: T2, recombinant human LILRB2-Fc fusion protein (human, UniProt Q8N423 22-457); test: biolayer interferometry (ForteBio), mAb on anti-mouse Fc sensor, LILR-Fc in solution, 1:1 global fit
T2 construct: hLILR-Fc purchased from R&D Systems; also called hLILRB2-Fc; hLILRB2; not shown: Fc part of the fusion bought from R&D Systems; detected with anti-human IgG

[3] = target: T3, cynomolgus macaque LILRB1.1-Fc fusion protein (cynomolgus macaque; human); test: as above
T3 construct: extracellular domain; Produced in HEK293T cells; also called mLILRB1.1; mLILRB1.1-Fc

[4] = target: T4, cynomolgus macaque LILRB1.2-Fc fusion protein (cynomolgus macaque; human); test: as above
T4 construct: extracellular domain; Produced in HEK293T cells; also called mLILRB1.2; mLILRB1.2-Fc

[5] = target: T5, cynomolgus macaque LILRB2.2-Fc fusion protein (cynomolgus macaque; human); test: as above
T5 construct: extracellular domain; Produced in HEK293T cells; also called mLILRB2.2; mLILRB2.2-Fc

[6] = target: T6, recombinant human LILRA1-Fc fusion protein (human, UniProt O75019 17-461); test: as above
T6 construct: hLILR-Fc purchased from R&D Systems; also called hLILRA1; hLILRA1-Fc; not shown: Fc part of the fusion bought from R&D Systems; captured by anti-human immunoglobulin

[7] = target: T7, recombinant human LILRA3-Fc fusion protein (human, UniProt Q8N6C8 24-439); test: as above
T7 construct: hLILR-Fc purchased from R&D Systems; also called hLILRA3; hLILRA3-Fc; not shown: Fc part of the fusion bought from R&D Systems

[8] = target: T8, recombinant human LILRB1-Fc fusion protein (human, UniProt Q8NHL6 24-458); test: as above
T8 construct: hLILR-Fc purchased from R&D Systems; also called hLILRB1-Fc; hLILRB1; not shown: Fc part of the fusion bought from R&D Systems; detected with anti-human IgG

[9] = target: T9, recombinant human LILRA2-Fc fusion protein (human, UniProt Q8N149 24-449); test: EIA on hLILR-Fc captured by goat anti-human Ig on the plate; AChE-labelled goat anti-mouse antibody; absorbance (axis printed 'DO 141nm'); no blank curve on the sheet
T9 construct: not shown: Fc part of the fusion bought from R&D Systems

[10] = target: T10, recombinant human LILRA4-Fc fusion protein (human, UniProt P59901 24-446); test: as above
T10 construct: not shown: Fc part of the fusion bought from R&D Systems

[11] = target: T11, recombinant human LILRA5-Fc fusion protein (human, UniProt A6NI73 42-268); test: as above
T11 construct: not shown: Fc part of the fusion bought from R&D Systems

[12] = target: T12, recombinant human LILRB3-Fc fusion protein (human, UniProt O75022 24-443); test: as above
T12 construct: not shown: Fc part of the fusion bought from R&D Systems

[13] = target: T13, recombinant human LILRB4-Fc fusion protein (human, UniProt Q8NHJ6 22-259); test: as above
T13 construct: not shown: Fc part of the fusion bought from R&D Systems

[14] = target: T14, recombinant human LILRB5-Fc fusion protein (human, UniProt O75023 24-458); test: as above
T14 construct: not shown: Fc part of the fusion bought from R&D Systems

[15] = target: T15, cynomolgus macaque LILRB2.1-Fc fusion protein (cynomolgus macaque; human); test: biolayer interferometry (ForteBio), mAb on anti-mouse Fc sensor, LILR-Fc in solution, 1:1 global fit
T15 construct: extracellular domain; Produced in HEK293T cells; also called mLILRB2.1; mLILRB2.1-Fc

T9 sequence (Q8N149 24-449): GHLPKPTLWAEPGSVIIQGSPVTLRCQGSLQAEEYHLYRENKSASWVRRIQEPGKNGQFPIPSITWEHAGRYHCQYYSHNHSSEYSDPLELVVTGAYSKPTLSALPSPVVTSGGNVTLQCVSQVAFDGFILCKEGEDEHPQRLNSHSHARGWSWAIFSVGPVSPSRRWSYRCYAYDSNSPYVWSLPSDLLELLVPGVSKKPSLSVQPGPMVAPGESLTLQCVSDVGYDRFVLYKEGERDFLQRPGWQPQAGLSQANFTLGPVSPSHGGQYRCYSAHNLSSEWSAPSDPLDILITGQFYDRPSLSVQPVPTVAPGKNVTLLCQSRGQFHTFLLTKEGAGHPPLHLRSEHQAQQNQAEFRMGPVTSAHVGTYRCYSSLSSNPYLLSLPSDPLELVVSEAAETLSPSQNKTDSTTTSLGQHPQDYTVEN
T10 sequence (P59901 24-446): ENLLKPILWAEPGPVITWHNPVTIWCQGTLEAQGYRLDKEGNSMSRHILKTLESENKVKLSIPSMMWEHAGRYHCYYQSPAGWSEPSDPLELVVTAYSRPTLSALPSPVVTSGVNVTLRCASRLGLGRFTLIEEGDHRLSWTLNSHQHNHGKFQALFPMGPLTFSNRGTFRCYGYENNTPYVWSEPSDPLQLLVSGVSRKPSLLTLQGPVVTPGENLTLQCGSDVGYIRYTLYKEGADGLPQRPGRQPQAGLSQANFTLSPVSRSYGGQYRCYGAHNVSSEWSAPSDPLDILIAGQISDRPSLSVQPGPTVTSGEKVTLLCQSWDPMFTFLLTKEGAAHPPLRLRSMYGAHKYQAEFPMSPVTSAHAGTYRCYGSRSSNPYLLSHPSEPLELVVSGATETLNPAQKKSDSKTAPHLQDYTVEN
T14 sequence (O75023 24-458): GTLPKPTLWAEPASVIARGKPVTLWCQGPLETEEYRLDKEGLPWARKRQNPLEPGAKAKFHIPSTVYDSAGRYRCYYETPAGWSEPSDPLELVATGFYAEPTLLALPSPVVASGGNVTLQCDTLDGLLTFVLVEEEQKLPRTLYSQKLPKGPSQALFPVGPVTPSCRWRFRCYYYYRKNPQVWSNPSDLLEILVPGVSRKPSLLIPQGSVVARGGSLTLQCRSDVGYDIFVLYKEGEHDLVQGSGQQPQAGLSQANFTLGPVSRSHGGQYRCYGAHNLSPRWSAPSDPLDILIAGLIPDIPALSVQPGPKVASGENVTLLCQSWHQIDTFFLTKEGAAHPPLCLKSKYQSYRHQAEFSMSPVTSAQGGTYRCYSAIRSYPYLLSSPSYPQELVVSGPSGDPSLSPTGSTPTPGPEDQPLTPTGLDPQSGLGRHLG
T8 sequence (Q8NHL6 24-458): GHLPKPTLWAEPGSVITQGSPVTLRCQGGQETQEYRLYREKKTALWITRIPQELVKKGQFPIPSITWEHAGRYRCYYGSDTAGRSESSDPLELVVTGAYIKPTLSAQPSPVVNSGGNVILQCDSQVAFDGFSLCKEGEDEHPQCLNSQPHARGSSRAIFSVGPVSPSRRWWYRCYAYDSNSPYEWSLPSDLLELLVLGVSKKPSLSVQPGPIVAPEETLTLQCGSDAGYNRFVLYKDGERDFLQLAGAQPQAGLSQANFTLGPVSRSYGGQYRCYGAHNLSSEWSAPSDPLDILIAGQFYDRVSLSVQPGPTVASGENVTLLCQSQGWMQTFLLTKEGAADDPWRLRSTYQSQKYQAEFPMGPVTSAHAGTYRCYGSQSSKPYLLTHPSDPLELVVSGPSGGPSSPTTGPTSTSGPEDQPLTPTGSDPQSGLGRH
T12 sequence (O75022 24-443): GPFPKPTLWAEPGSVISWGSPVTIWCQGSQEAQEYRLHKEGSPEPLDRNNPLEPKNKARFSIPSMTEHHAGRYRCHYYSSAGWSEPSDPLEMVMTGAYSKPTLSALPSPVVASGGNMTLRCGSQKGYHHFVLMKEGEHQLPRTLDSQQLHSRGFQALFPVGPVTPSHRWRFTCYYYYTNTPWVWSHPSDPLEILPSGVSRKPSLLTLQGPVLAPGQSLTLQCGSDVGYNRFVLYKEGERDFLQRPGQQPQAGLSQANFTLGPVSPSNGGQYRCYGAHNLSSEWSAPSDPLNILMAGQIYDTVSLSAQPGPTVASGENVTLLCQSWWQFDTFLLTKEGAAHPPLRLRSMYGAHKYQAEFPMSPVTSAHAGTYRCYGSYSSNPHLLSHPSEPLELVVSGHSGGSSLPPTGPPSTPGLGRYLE
T6 sequence (O75019 17-461): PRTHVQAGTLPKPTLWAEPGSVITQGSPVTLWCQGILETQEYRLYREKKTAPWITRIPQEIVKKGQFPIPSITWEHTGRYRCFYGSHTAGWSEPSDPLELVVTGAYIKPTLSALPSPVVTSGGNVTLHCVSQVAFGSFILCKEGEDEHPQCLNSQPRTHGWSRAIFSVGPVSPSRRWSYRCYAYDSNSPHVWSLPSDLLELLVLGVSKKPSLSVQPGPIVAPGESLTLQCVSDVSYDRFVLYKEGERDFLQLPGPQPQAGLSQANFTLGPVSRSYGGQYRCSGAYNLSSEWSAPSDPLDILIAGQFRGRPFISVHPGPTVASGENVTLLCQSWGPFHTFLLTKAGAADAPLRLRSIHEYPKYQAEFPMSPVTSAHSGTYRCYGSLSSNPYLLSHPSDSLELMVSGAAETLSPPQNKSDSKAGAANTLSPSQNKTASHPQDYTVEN
T11 sequence (A6NI73 42-268): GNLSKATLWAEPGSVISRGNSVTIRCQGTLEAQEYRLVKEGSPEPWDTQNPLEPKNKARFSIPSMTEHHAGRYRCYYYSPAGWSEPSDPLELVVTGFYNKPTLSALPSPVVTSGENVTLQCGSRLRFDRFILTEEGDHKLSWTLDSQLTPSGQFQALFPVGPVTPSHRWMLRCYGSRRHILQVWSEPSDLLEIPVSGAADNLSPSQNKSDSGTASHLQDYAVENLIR
T7 sequence (Q8N6C8 24-439): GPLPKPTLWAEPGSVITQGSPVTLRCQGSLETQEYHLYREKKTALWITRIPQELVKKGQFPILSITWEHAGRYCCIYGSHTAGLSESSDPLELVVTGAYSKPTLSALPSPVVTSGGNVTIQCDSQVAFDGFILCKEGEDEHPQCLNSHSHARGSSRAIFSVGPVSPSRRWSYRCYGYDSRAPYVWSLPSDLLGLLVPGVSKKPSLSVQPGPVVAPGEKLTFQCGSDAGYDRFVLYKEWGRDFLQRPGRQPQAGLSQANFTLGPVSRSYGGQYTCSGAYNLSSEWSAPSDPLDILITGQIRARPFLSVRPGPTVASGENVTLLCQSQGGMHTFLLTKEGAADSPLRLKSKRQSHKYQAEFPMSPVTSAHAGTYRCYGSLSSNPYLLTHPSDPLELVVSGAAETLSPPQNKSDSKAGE
T2 sequence (Q8N423 22-457): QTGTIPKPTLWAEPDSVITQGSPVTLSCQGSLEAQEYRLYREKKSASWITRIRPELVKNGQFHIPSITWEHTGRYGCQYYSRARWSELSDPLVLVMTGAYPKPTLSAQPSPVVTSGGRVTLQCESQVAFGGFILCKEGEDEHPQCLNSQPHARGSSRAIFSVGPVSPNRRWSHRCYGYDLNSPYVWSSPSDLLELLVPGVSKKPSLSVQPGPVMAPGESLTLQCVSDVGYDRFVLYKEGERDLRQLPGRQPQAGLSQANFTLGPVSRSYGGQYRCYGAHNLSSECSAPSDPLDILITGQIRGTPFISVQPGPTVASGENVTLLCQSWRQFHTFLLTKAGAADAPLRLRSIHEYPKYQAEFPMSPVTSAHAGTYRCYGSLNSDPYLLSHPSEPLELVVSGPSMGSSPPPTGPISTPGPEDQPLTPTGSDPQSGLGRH
T1 sequence (Q8NHL6 24-650): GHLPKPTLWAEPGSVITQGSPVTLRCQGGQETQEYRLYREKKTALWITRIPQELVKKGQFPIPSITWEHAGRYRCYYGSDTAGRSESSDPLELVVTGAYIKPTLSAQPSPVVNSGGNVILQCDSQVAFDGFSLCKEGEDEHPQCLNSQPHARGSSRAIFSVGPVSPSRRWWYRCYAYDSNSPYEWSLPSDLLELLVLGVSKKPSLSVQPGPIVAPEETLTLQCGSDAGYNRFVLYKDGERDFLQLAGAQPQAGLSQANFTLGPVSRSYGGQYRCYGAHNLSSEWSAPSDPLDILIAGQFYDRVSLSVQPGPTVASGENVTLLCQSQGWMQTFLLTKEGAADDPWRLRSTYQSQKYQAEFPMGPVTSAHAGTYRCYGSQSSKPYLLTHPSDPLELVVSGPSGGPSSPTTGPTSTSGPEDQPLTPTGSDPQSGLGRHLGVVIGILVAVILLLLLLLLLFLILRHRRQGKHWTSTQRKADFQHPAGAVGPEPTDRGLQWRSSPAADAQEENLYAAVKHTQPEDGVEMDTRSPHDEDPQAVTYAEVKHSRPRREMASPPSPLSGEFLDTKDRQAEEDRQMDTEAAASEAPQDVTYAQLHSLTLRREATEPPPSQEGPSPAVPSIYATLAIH

Row | Binder | binding result [1] | Kd [2] [nM] | Kd [3] [nM] | Kd [4] [nM] | Kd [5] [nM] | Kd [6] [nM] | Kd [7] [nM] | Kd [8] [nM] | binding result [9] | binding result [10] | binding result [11] | binding result [12] | binding result [13] | binding result [14] | Kd [15] [nM]
1 | B1 | binds | – | – | – | – | – | – | – | – | – | – | – | – | – | –
2 | B2 | – | 0.14 | 0.0039 | 0.014 | 2.9 | 0.73 | 1.3 | 0.53 | no binding (tested: 10 µg/ml) | no binding (tested: 10 µg/ml) | no binding (tested: 10 µg/ml) | no binding (tested: 10 µg/ml) | no binding (tested: 10 µg/ml) | no binding (tested: 10 µg/ml) | –
3 | B3 | – | – | 3.6 | 0.12 | 0.071 | 0.37 | 3.2 | 0.87 | no binding (tested: 10 µg/ml) | no binding (tested: 10 µg/ml) | no binding (tested: 10 µg/ml) | no binding (tested: 10 µg/ml) | no binding (tested: 10 µg/ml) | no binding (tested: 10 µg/ml) | 0.48
